The target in assay [1] is T1, human calcitonin receptor (human, UniProt P30988 25-474).
T1 construct: whole, on cells; Assay used cell membranes of the transfected BHK cells; also called hCTR; hCT
T1 sequence (looked up): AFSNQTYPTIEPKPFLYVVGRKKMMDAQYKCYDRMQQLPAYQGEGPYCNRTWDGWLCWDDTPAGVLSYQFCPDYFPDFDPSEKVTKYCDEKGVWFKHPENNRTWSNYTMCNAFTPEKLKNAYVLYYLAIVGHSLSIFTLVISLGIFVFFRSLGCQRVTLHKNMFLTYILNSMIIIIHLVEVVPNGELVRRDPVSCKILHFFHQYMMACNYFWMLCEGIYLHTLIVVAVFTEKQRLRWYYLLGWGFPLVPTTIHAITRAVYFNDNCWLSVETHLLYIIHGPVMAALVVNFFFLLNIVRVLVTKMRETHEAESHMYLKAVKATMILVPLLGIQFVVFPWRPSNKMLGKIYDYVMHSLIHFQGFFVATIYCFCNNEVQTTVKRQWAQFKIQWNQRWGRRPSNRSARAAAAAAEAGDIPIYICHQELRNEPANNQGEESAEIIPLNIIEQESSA
Briefly: SPA radioligand competition (125I-calcitonin), membranes of BHK cells with human calcitonin receptor. In short, it runs like this: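 BHK hCTR membranes 35 ng/μL + SPA beads 0.05 mg/well; buffer 50 mM Hepes pH 7.4, 1 mM CaCl2, 5 mM MgCl₂, 0.1% OA, 0.02% Tween20. 120 min, 25° C., shaking. Scintillation count; IC50 by one-site binding competition.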

In assay [2] the target is T1, human calcitonin receptor. The assay is described as follows: ratio IC50 hCTR / IC50 hAmylin-R of the two SPA competition assays; reference: human amylin receptor. The procedure: The resulting pellet was resuspended, homogenized and centrifuged (20.000 rpm, 15 min) in a buffer containing 20 mM Na-HEPES and 0.1 mM EDTA (pH 7.4, buffer 2). The resulting pellet was resuspended in buffer 2 and protein concentration was measured (BCA protein Assay, Pierce). The homogenate was kept cold during the whole procedure. The membranes were kept at −80° C. until use. The assay was performed in a 384 well Optiplate (PerkinElmer) in a total volume of 40 ul. Membranes were mixed with SPA beads. Final concentration of membranes 35 ng/μL final and SPA beads was 0.05 mg/well. Test-compounds were dissolved in DMSO and further diluted in assay buffer (50 mM Hepes, pH 7.4, 1 mM CaCl2, 5 mM MgCl₂, 0.1% OA and 0.02% Tween20). […] The final mixture was incubated with shaking at 400 rpm for 120 min at 25° C. prior to centrifugation (1500 rpm, 10 min). Samples were analyzed on TopCounter™ (Packard). The IC₅₀ was calculated using (one site binding competition analysis) GraphPad Prism5 as a measure of receptor affinity.
Membranes were prepared in the following way; the cells were rinsed with PBS and incubated with Versene for approximately 5 min before harvesting. The cells were flushed with PBS and the cell-suspension was centrifuged for 5 min at 1000 rpm. Cells were homogenized (Ultrathurrax) in a buffer containing 20 mM Na-HEPES and 10 mM EDTA (pH 7.4) and centrifuged at 20.000 rpm for 15 min. The resulting pellet was resuspended, homogenized and centrifuged (20.000 rpm, 15 min) in a buffer containing 20 mM Na-HEPES and 0.1 mM EDTA (pH 7.4, buffer 2). The resulting pellet was resuspended in buffer 2 and protein concentration was measured (BCA protein Assay, Pierce). The homogenate was kept cold during the whole procedure. The membranes were kept at −80° C. until use. Assay was performed in a 384 well Optiplate (PerkinElmer) in a total volume of 40 ul. Membranes were mixed with SPA beads.

Numbered stars: 1 amine (or outer) side, 2 acyl side, 3 side chain; on linkers, the order of the positions; unused ones are H or OH. Bridge positions count the residues as written; N and C are the ends. * marks the point of attachment. C20 diacid = O=C(O)CCCCCCCCCCCCCCCCCCC(=O)*; γGlu = O=C(O)[C@H](CCC(=O)[*:2])N[*:1]

B1: N^α1-[(4S)-4-carboxy-4-(19-carboxynonadecanoylamino)butanoyl]-[Glu14,Arg17,Pro21,Pro27,His34]-h-amylin (peptide)
peptide: {C20 diacid-γGlu}-KCNTATCATQRLAEFLRHSSPNFGAIPSSTNVGHNTY-NH2
modifications: disulfide 2-7
SMILES: CC[C@H](C)[C@H](NC(=O)[C@H](C)NC(=O)CNC(=O)[C@H](Cc1ccccc1)NC(=O)[C@H](CC(N)=O)NC(=O)[C@@H]1CCCN1C(=O)[C@H](CO)NC(=O)[C@H](CO)NC(=O)[C@H](Cc1c[nH]cn1)NC(=O)[C@H](CCCNC(=N)N)NC(=O)[C@H](CC(C)C)NC(=O)[C@H](Cc1ccccc1)NC(=O)[C@H](CCC(=O)O)NC(=O)[C@H](C)NC(=O)[C@H](CC(C)C)NC(=O)[C@H](CCCNC(=N)N)NC(=O)[C@H](CCC(N)=O)NC(=O)[C@@H](NC(=O)[C@H](C)NC(=O)[C@@H]1CSSC[C@H](NC(=O)[C@H](CCCCN)NC(=O)CC[C@H](NC(=O)CCCCCCCCCCCCCCCCCCC(=O)O)C(=O)O)C(=O)N[C@@H](CC(N)=O)C(=O)N[C@@H]([C@@H](C)O)C(=O)N[C@@H](C)C(=O)N[C@@H]([C@@H](C)O)C(=O)N1)[C@@H](C)O)C(=O)N1CCC[C@H]1C(=O)N[C@@H](CO)C(=O)N[C@@H](CO)C(=O)N[C@H](C(=O)N[C@@H](CC(N)=O)C(=O)N[C@H](C(=O)NCC(=O)N[C@@H](Cc1c[nH]cn1)C(=O)N[C@@H](CC(N)=O)C(=O)N[C@H](C(=O)N[C@@H](Cc1ccc(O)cc1)C(N)=O)[C@@H](C)O)C(C)C)[C@@H](C)O
notes: Synthetic analogue; also called compound 17
Broadly, the IC50 is the concentration needed to halve the response being measured. As for B1, the IC50 in assay [1] turned out to be 10.9 nM. In addition, the “Ratio hCT/hAmylin binding” value in assay [2] came out at 12.5.

B2: N^α1N^α1-[(4S)-4-carboxy-4-(19-carboxynonadecanoylamino)butanoyl]-[Glu14,Arg17,Pro21,Pro27,Glu35]-h-amylin (peptide)
peptide: {C20 diacid-γGlu}-KCNTATCATQRLAEFLRHSSPNFGAIPSSTNVGSETY-NH2
modifications: disulfide 2-7
SMILES: CC[C@H](C)[C@H](NC(=O)[C@H](C)NC(=O)CNC(=O)[C@H](Cc1ccccc1)NC(=O)[C@H](CC(N)=O)NC(=O)[C@@H]1CCCN1C(=O)[C@H](CO)NC(=O)[C@H](CO)NC(=O)[C@H](Cc1c[nH]cn1)NC(=O)[C@H](CCCNC(=N)N)NC(=O)[C@H](CC(C)C)NC(=O)[C@H](Cc1ccccc1)NC(=O)[C@H](CCC(=O)O)NC(=O)[C@H](C)NC(=O)[C@H](CC(C)C)NC(=O)[C@H](CCCNC(=N)N)NC(=O)[C@H](CCC(N)=O)NC(=O)[C@@H](NC(=O)[C@H](C)NC(=O)[C@@H]1CSSC[C@H](NC(=O)[C@H](CCCCN)NC(=O)CC[C@H](NC(=O)CCCCCCCCCCCCCCCCCCC(=O)O)C(=O)O)C(=O)N[C@@H](CC(N)=O)C(=O)N[C@@H]([C@@H](C)O)C(=O)N[C@@H](C)C(=O)N[C@@H]([C@@H](C)O)C(=O)N1)[C@@H](C)O)C(=O)N1CCC[C@H]1C(=O)N[C@@H](CO)C(=O)N[C@@H](CO)C(=O)N[C@H](C(=O)N[C@@H](CC(N)=O)C(=O)N[C@H](C(=O)NCC(=O)N[C@@H](CO)C(=O)N[C@@H](CCC(=O)O)C(=O)N[C@H](C(=O)N[C@@H](Cc1ccc(O)cc1)C(N)=O)[C@@H](C)O)C(C)C)[C@@H](C)O
notes: Synthetic analogue; also called compound 22
On to B2, for which, in assay [1], the IC50 is 9.73 nM. For the same molecule, the “Ratio hCT/hAmylin binding” value in assay [2] is 12.3.

B3: N^α1-[(4S)-4-carboxy-4-(19-carboxynonadecanoylamino)butanoyl]-[Glu14,Arg17,Pro21,Pro27,Pro31]-h-amylin (peptide)
peptide: {C20 diacid-γGlu}-KCNTATCATQRLAEFLRHSSPNFGAIPSSTPVGSNTY-NH2
modifications: disulfide 2-7
SMILES: CC[C@H](C)[C@H](NC(=O)[C@H](C)NC(=O)CNC(=O)[C@H](Cc1ccccc1)NC(=O)[C@H](CC(N)=O)NC(=O)[C@@H]1CCCN1C(=O)[C@H](CO)NC(=O)[C@H](CO)NC(=O)[C@H](Cc1c[nH]cn1)NC(=O)[C@H](CCCNC(=N)N)NC(=O)[C@H](CC(C)C)NC(=O)[C@H](Cc1ccccc1)NC(=O)[C@H](CCC(=O)O)NC(=O)[C@H](C)NC(=O)[C@H](CC(C)C)NC(=O)[C@H](CCCNC(=N)N)NC(=O)[C@H](CCC(N)=O)NC(=O)[C@@H](NC(=O)[C@H](C)NC(=O)[C@@H]1CSSC[C@H](NC(=O)[C@H](CCCCN)NC(=O)CC[C@H](NC(=O)CCCCCCCCCCCCCCCCCCC(=O)O)C(=O)O)C(=O)N[C@@H](CC(N)=O)C(=O)N[C@@H]([C@@H](C)O)C(=O)N[C@@H](C)C(=O)N[C@@H]([C@@H](C)O)C(=O)N1)[C@@H](C)O)C(=O)N1CCC[C@H]1C(=O)N[C@@H](CO)C(=O)N[C@@H](CO)C(=O)N[C@H](C(=O)N1CCC[C@H]1C(=O)N[C@H](C(=O)NCC(=O)N[C@@H](CO)C(=O)N[C@@H](CC(N)=O)C(=O)N[C@H](C(=O)N[C@@H](Cc1ccc(O)cc1)C(N)=O)[C@@H](C)O)C(C)C)[C@@H](C)O
notes: Synthetic analogue; also called compound 31
With B3, the IC50 in assay [1] worked out at 3.26 nM. Besides, the “Ratio hCT/hAmylin binding” value in assay [2] was 16.

B4: N^α1-[(4S)-4-carboxy-4-(19-carboxynonadecanoylamino)butanoyl]-[Glu14,Arg17,Pro21,Pro27,Pro34]-h-amylin (peptide)
peptide: {C20 diacid-γGlu}-KCNTATCATQRLAEFLRHSSPNFGAIPSSTNVGPNTY-NH2
modifications: disulfide 2-7
SMILES: CC[C@H](C)[C@H](NC(=O)[C@H](C)NC(=O)CNC(=O)[C@H](Cc1ccccc1)NC(=O)[C@H](CC(N)=O)NC(=O)[C@@H]1CCCN1C(=O)[C@H](CO)NC(=O)[C@H](CO)NC(=O)[C@H](Cc1c[nH]cn1)NC(=O)[C@H](CCCNC(=N)N)NC(=O)[C@H](CC(C)C)NC(=O)[C@H](Cc1ccccc1)NC(=O)[C@H](CCC(=O)O)NC(=O)[C@H](C)NC(=O)[C@H](CC(C)C)NC(=O)[C@H](CCCNC(=N)N)NC(=O)[C@H](CCC(N)=O)NC(=O)[C@@H](NC(=O)[C@H](C)NC(=O)[C@@H]1CSSC[C@H](NC(=O)[C@H](CCCCN)NC(=O)CC[C@H](NC(=O)CCCCCCCCCCCCCCCCCCC(=O)O)C(=O)O)C(=O)N[C@@H](CC(N)=O)C(=O)N[C@@H]([C@@H](C)O)C(=O)N[C@@H](C)C(=O)N[C@@H]([C@@H](C)O)C(=O)N1)[C@@H](C)O)C(=O)N1CCC[C@H]1C(=O)N[C@@H](CO)C(=O)N[C@@H](CO)C(=O)N[C@H](C(=O)N[C@@H](CC(N)=O)C(=O)N[C@H](C(=O)NCC(=O)N1CCC[C@H]1C(=O)N[C@@H](CC(N)=O)C(=O)N[C@H](C(=O)N[C@@H](Cc1ccc(O)cc1)C(N)=O)[C@@H](C)O)C(C)C)[C@@H](C)O
notes: Synthetic analogue; also called compound 32
As to B4, the half-maximal inhibitory concentration (IC50) in assay [1] worked out at 1.09 nM. The “Ratio hCT/hAmylin binding” value in assay [2] worked out at 10.9.

B5: N^α1-[(4S)-4-carboxy-4-(19-carboxynonadecanoylamino)butanoyl]-[His14,Arg17,Pro21,Pro27,Glu35]-h-amylin (peptide)
peptide: {C20 diacid-γGlu}-KCNTATCATQRLAHFLRHSSPNFGAIPSSTNVGSETY-NH2
modifications: disulfide 2-7
SMILES: CC[C@H](C)[C@H](NC(=O)[C@H](C)NC(=O)CNC(=O)[C@H](Cc1ccccc1)NC(=O)[C@H](CC(N)=O)NC(=O)[C@@H]1CCCN1C(=O)[C@H](CO)NC(=O)[C@H](CO)NC(=O)[C@H](Cc1c[nH]cn1)NC(=O)[C@H](CCCNC(=N)N)NC(=O)[C@H](CC(C)C)NC(=O)[C@H](Cc1ccccc1)NC(=O)[C@H](Cc1c[nH]cn1)NC(=O)[C@H](C)NC(=O)[C@H](CC(C)C)NC(=O)[C@H](CCCNC(=N)N)NC(=O)[C@H](CCC(N)=O)NC(=O)[C@@H](NC(=O)[C@H](C)NC(=O)[C@@H]1CSSC[C@H](NC(=O)[C@H](CCCCN)NC(=O)CC[C@H](NC(=O)CCCCCCCCCCCCCCCCCCC(=O)O)C(=O)O)C(=O)N[C@@H](CC(N)=O)C(=O)N[C@@H]([C@@H](C)O)C(=O)N[C@@H](C)C(=O)N[C@@H]([C@@H](C)O)C(=O)N1)[C@@H](C)O)C(=O)N1CCC[C@H]1C(=O)N[C@@H](CO)C(=O)N[C@@H](CO)C(=O)N[C@H](C(=O)N[C@@H](CC(N)=O)C(=O)N[C@H](C(=O)NCC(=O)N[C@@H](CO)C(=O)N[C@@H](CCC(=O)O)C(=O)N[C@H](C(=O)N[C@@H](Cc1ccc(O)cc1)C(N)=O)[C@@H](C)O)C(C)C)[C@@H](C)O
notes: Synthetic analogue; also called compound 30
On to B5, for which the IC50 in assay [1] was 21.6 nM. In assay [2], the “Ratio hCT/hAmylin binding” value came out at 23.6.

Values taken from patent publication US20140087995A1 (published 2014).
